According to patent US20070082369A1:

How the values were obtained:
[1] = target: Heska native Derf1 (Dermatophagoides farinae) (UniProt P16311); test: sandwich ELISA, capture MAb 6A8, detection biotinylated MAb 4C1; 25 ng protein per well
[2] = target: Pichia-expressed recombinant Der f 1 protein PDerf1303b (Dermatophagoides farinae) (UniProt P16311); test: as above
[3] = target: E. coli-expressed recombinant Der f 1 protein PDerf1303c (Dermatophagoides farinae) (UniProt P16311); test: as above
[4] = target: Heska native Derf1 (Dermatophagoides farinae) (UniProt P16311); test: sandwich ELISA, capture MAb 6A8, detection biotinylated MAb 4C1; 50 ng protein per well
[5] = target: Pichia-expressed recombinant Der f 1 protein PDerf1303b (Dermatophagoides farinae) (UniProt P16311); test: as above
[6] = target: E. coli-expressed recombinant Der f 1 protein PDerf1303c (Dermatophagoides farinae) (UniProt P16311); test: as above
[7] = target: Heska native Derf1 (Dermatophagoides farinae) (UniProt P16311); test: sandwich ELISA, capture MAb 6A8, detection biotinylated MAb 4C1; 2.5 ng protein per well
[8] = target: Pichia-expressed recombinant Der f 1 protein PDerf1303b (Dermatophagoides farinae) (UniProt P16311); test: as above
[9] = target: E. coli-expressed recombinant Der f 1 protein PDerf1303c (Dermatophagoides farinae) (UniProt P16311); test: as above
[10] = target: Heska native Derf1 (Dermatophagoides farinae) (UniProt P16311); test: sandwich ELISA, capture MAb 6A8, detection biotinylated MAb 4C1; 3.1 ng protein per well
[11] = target: Pichia-expressed recombinant Der f 1 protein PDerf1303b (Dermatophagoides farinae) (UniProt P16311); test: as above
[12] = target: E. coli-expressed recombinant Der f 1 protein PDerf1303c (Dermatophagoides farinae) (UniProt P16311); test: as above
[13] = target: Heska native Derf1 (Dermatophagoides farinae) (UniProt P16311); test: sandwich ELISA, capture MAb 6A8, detection biotinylated MAb 4C1; 6.25 ng protein per well
[14] = target: Pichia-expressed recombinant Der f 1 protein PDerf1303b (Dermatophagoides farinae) (UniProt P16311); test: as above
[15] = target: E. coli-expressed recombinant Der f 1 protein PDerf1303c (Dermatophagoides farinae) (UniProt P16311); test: as above
[16] = target: Heska native Derf1 (Dermatophagoides farinae) (UniProt P16311); test: sandwich ELISA, capture MAb 6A8, detection biotinylated MAb 4C1; 1.5 ng protein per well
[17] = target: Pichia-expressed recombinant Der f 1 protein PDerf1303b (Dermatophagoides farinae) (UniProt P16311); test: as above
[18] = target: E. coli-expressed recombinant Der f 1 protein PDerf1303c (Dermatophagoides farinae) (UniProt P16311); test: as above
[19] = target: Heska native Derf1 (Dermatophagoides farinae) (UniProt P16311); test: sandwich ELISA, capture MAb 6A8, detection biotinylated MAb 4C1; 0.75 ng protein per well
[20] = target: Pichia-expressed recombinant Der f 1 protein PDerf1303b (Dermatophagoides farinae) (UniProt P16311); test: as above
[21] = target: E. coli-expressed recombinant Der f 1 protein PDerf1303c (Dermatophagoides farinae) (UniProt P16311); test: as above

OD [1]: 2140 OD x1000 | OD [2]: 2160 OD x1000 | OD [3]: 1770 OD x1000 | OD [4]: 2180 OD x1000 | OD [5]: 2150 OD x1000 | OD [6]: 1980 OD x1000 | OD [7]: 2290 OD x1000 | OD [8]: 2090 OD x1000 | OD [9]: 1370 OD x1000 | OD [10]: 2220 OD x1000 | OD [11]: 1540 OD x1000 | OD [12]: 503 OD x1000 | OD [13]: 2200 OD x1000 | OD [14]: 1960 OD x1000 | OD [15]: 890 OD x1000 | OD [16]: 2040 OD x1000 | OD [17]: 916 OD x1000 | OD [18]: 268 OD x1000 | OD [19]: 1740 OD x1000 | OD [20]: 405 OD x1000 | OD [21]: 136 OD x1000
Substance: anti-Der f 1 protein monoclonal antibody 6A8
